# Measurements: patent US20200277397A1 (Genmab, published 2020)
# T1: full length human 5T4 (human, UniProt Q13641 32-420)
# T1 construct: Uniprot Q13641; Used here also for endogenous 5T4 on the human tumour cell lines
# T1 sequence: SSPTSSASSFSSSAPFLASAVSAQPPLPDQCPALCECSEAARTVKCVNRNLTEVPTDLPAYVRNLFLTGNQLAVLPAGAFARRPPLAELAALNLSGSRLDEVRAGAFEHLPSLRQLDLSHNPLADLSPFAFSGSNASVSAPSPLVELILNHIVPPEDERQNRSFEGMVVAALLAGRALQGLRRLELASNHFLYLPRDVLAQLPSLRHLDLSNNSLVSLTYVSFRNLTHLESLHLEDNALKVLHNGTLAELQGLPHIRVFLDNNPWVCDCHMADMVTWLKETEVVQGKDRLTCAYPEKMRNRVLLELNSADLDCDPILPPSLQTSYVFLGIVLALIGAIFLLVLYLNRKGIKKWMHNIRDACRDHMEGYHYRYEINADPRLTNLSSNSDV
# T2: full length cynomolgus monkey 5T4 (cynomolgus monkey, UniProt Q4R8Y9 35-420)
# T2 construct: Uniprot Q4R8Y9; also called cynomolgus monkey 5T4 on HEK-293 cells
# T2 sequence: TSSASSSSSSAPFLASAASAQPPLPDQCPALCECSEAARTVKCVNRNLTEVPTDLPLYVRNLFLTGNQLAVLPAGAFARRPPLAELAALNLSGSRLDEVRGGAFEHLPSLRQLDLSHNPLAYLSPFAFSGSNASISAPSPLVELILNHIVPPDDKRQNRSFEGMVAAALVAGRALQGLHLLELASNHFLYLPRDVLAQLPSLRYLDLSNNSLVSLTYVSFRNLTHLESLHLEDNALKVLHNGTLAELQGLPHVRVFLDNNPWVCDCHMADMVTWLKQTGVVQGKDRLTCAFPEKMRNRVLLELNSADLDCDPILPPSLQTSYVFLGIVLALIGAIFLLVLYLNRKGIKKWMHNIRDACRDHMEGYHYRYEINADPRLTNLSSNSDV
# What was measured:
# full length human 5T4 [1] = molecular target: T1, full length human 5T4; assay: flow cytometry, HeLa cells, PE anti-human IgG F(ab')2, MFI PE
# full length human 5T4 [2] = molecular target: T1, full length human 5T4; assay: flow cytometry, MDA-MB-231 cells, PE anti-human IgG F(ab')2, MFI PE
# full length human 5T4 [3] = molecular target: T1, full length human 5T4; assay: flow cytometry, HeLa cells (left panel), FITC anti-human IgG F(ab')2, MFI FITC
# Protocol: (§1) After washing twice in staining buffer, cells were incubated in 50 μL secondary antibody at 4° C. for 30 min. […] Next, cells were washed twice in staining buffer, re-suspended in 120 μL staining buffer and analyzed on a BD LSRFortessa FACS (BD Biosciences, USA). Binding curves were analyzed using non-linear regression (sigmoidal dose-response with variable slope) using GraphPad Prism V7.02 software (GraphPad Software, San Diego, Calif., USA).
# full length human 5T4 [4] = molecular target: T1, full length human 5T4; assay: flow cytometry, MDA-MB-231 cells (right panel), FITC anti-human IgG F(ab')2, MFI FITC
# Protocol: as §1
# full length human 5T4 [5] = molecular target: T1, full length human 5T4; assay: flow cytometry, HEK-293 cells transfected with human 5T4 (left panel), PE anti-human IgG F(ab')2, MFI PE
# [6] = molecular target: T2, full length cynomolgus monkey 5T4; assay: flow cytometry, HEK-293 cells transfected with cynomolgus monkey 5T4 (right panel), PE anti-human IgG F(ab')2, MFI PE
# [7] = molecular target: T2, full length cynomolgus monkey 5T4; assay: flow cytometry, HEK-293 cells transfected with full length cynomolgus monkey 5T4 (right panel), FITC anti-human IgG F(ab')2, MFI FITC
# Protocol: (§2) Binding of monovalent and bivalent 5T4 antibodies was analysed using HEK-293 cells transiently transfected with full length human (left panels) or cynomolgus monkey 5T4 (right panels). Cells were incubated with increasing concentrations of antibodies, as indicated. After secondary labelling with FITC conjugated goat-anti-human IgG F(ab′)2, binding was analysed by flow cytometry. […] Data are presented as mean fluorescence intensity (MFI) values of two technical replicates±SD.
# (§3) Experiments were performed in technical duplicate. After washing twice in staining buffer, cells were incubated in 50 μL secondary antibody at 4° C. for 30 min. […] Cells were washed twice in staining buffer, re-suspended in 30 μL staining buffer and analyzed on an iQue Screener (Intellicyt Corporation, USA). Binding curves were analyzed using non-linear regression (sigmoidal dose-response with variable slope) using GraphPad Prism V7.02 software (Graph Pad Software, San Diego, Calif., USA).
# full length human 5T4 [8] = molecular target: T1, full length human 5T4; assay: flow cytometry, HeLa cells, PE anti-human IgG F(ab')2, MFI PE; remark: listed apart in the source
# full length human 5T4 [9] = molecular target: T1, full length human 5T4; assay: flow cytometry, MDA-MB-231 cells, PE anti-human IgG F(ab')2, MFI PE; remark: listed apart in the source
# full length human 5T4 [10] = molecular target: T1, full length human 5T4; assay: flow cytometry, HeLa cells (left panel), FITC anti-human IgG F(ab')2, MFI FITC; remark: listed apart in the source
# Protocol: as §1
# full length human 5T4 [11] = molecular target: T1, full length human 5T4; assay: flow cytometry, MDA-MB-231 cells (right panel), FITC anti-human IgG F(ab')2, MFI FITC; remark: listed apart in the source
# Protocol: as §1
# full length human 5T4 [12] = molecular target: T1, full length human 5T4; assay: flow cytometry, HEK-293 cells transfected with human 5T4 (left panel), PE anti-human IgG F(ab')2, MFI PE; remark: listed apart in the source
# [13] = molecular target: T2, full length cynomolgus monkey 5T4; assay: flow cytometry, HEK-293 cells transfected with cynomolgus monkey 5T4 (right panel), PE anti-human IgG F(ab')2, MFI PE; remark: listed apart in the source
# full length human 5T4 [14] = molecular target: T1, full length human 5T4; assay: flow cytometry, HEK-293 cells transfected with full length human 5T4 (left panel), FITC anti-human IgG F(ab')2, MFI FITC
# Protocol: as §2, §3
# [15] = molecular target: T2, full length cynomolgus monkey 5T4; assay: flow cytometry, HEK-293 cells transfected with full length cynomolgus monkey 5T4 (right panel), FITC anti-human IgG F(ab')2, MFI FITC; remark: listed apart in the source
# Protocol: as §2, §3
# full length human 5T4 [16] = molecular target: T1, full length human 5T4; assay: flow cytometry, HeLa cells, PE anti-human IgG F(ab')2, MFI PE; remark: listed apart in the source
# full length human 5T4 [17] = molecular target: T1, full length human 5T4; assay: flow cytometry, MDA-MB-231 cells, PE anti-human IgG F(ab')2, MFI PE; remark: listed apart in the source
# [18] = molecular target: T2, full length cynomolgus monkey 5T4; assay: flow cytometry, HEK-293 cells transfected with cynomolgus monkey 5T4 (right panel), PE anti-human IgG F(ab')2, MFI PE; remark: listed apart in the source
# full length human 5T4 [19] = molecular target: T1, full length human 5T4; assay: flow cytometry, HEK-293 cells transfected with full length human 5T4 (left panel), FITC anti-human IgG F(ab')2, MFI FITC; remark: listed apart in the source
# Protocol: as §2, §3
# [20] = molecular target: T2, full length cynomolgus monkey 5T4; assay: flow cytometry, HEK-293 cells transfected with full length cynomolgus monkey 5T4 (right panel), FITC anti-human IgG F(ab')2, MFI FITC; remark: listed apart in the source
# Protocol: as §2, §3
# [21] = molecular target: T2, full length cynomolgus monkey 5T4; assay: flow cytometry, HEK-293 cells transfected with cynomolgus monkey 5T4 (right panel), PE anti-human IgG F(ab')2, MFI PE; remark: listed apart in the source
binder,measurement,setting,value
bsIgG1-huCD3-H101G-FEALx5T4-207-FEAR (bispecific antibody) heavy 1: not shown VL: not shown heavy 2: QVQLQQWGAGLLKPSETLSLTCAVYGGSFSGYYWTWIRQPPGKGLEWIGEIDHSESTNYNPSLKSRVTISVDTSKNQFSLKLSSVTAADTAVYYCAGWFGELYHYYYGMDVWGQGTTVTVSSASTKGPSVFPLAPSSKSTSGGTAALGCLVKDYFPEPVTVSWNSGALTSGVHTFPAVLQSSGLYSLSSVVTVPSSSLGTQTYICNVNHKPSNTKVDKRVEPKSCDKTHTCPPCPAPEFEGGPSVFLFPPKPKDTLMISRTPEVTCVVVAVSHEDPEVKFNWYVDGVEVHNAKTKPREEQYNSTYRVVSVLTVLHQDWLNGKEYKCKVSNKALPAPIEKTISKAKGQPREPQVYTLPPSREEMTKNQVSLTCLVKGFYPSDIAVEWESNGQPENNYKTTPPVLDSDGSFFLYSRLTVDKSRWQQGNVFSCSVMHEALHNHYTQKSLSLSPGK light: not shown,EC50 (read off the curve),full length human 5T4 [1],~0.04 µg/mL
same,EC50 (read off the curve),full length human 5T4 [2],~0.04 µg/mL
same,EC50 (read off the curve),full length human 5T4 [3],~0.05 µg/mL
same,EC50 (read off the curve),full length human 5T4 [4],~0.1 µg/mL
same,EC50 (read off the curve),full length human 5T4 [5],~0.05 µg/mL
same,EC50 (read off the curve),[6],~0.03 µg/mL
same,EC50 (read off the curve),[7],~0.1 µg/mL
bsIgG1-huCD3-H101G-FEALx5T4-226-FEAR (bispecific antibody) heavy 1: not shown VL: not shown heavy 2: QVQLQQWGAGLLKPSETLSLTCAVYGGSFSGYYWSWIRQPPGKGLEWIGEIDHSGSTNYNPSLKSRVTISVDTSKNQFSLKLSSVTAADTAVYYCAAWFGELWDYYYGMDVWGQGTTVTVSSASTKGPSVFPLAPSSKSTSGGTAALGCLVKDYFPEPVTVSWNSGALTSGVHTFPAVLQSSGLYSLSSVVTVPSSSLGTQTYICNVNHKPSNTKVDKRVEPKSCDKTHTCPPCPAPEFEGGPSVFLFPPKPKDTLMISRTPEVTCVVVAVSHEDPEVKFNWYVDGVEVHNAKTKPREEQYNSTYRVVSVLTVLHQDWLNGKEYKCKVSNKALPAPIEKTISKAKGQPREPQVYTLPPSREEMTKNQVSLTCLVKGFYPSDIAVEWESNGQPENNYKTTPPVLDSDGSFFLYSRLTVDKSRWQQGNVFSCSVMHEALHNHYTQKSLSLSPGK light: not shown,EC50 (read off the curve),full length human 5T4 [8],~0.04 µg/mL
same,EC50 (read off the curve),full length human 5T4 [9],~0.04 µg/mL
same,EC50 (read off the curve),full length human 5T4 [10],~0.02 µg/mL
same,EC50 (read off the curve),full length human 5T4 [11],~0.09 µg/mL
same,EC50 (read off the curve),full length human 5T4 [12],~0.09 µg/mL
same,EC50 (read off the curve),[13],~0.06 µg/mL
same,EC50 (read off the curve),full length human 5T4 [14],~0.2 µg/mL
same,EC50 (read off the curve),[15],~0.1 µg/mL
bsIgG1-huCD3-H101G-FEALx5T4-106-FEAR (bispecific antibody) heavy 1: not shown VL: not shown heavy 2: EVQLVQSGAEVKKPGESLKISCKGSGYRFTSYWIGWVRQMPGKGLEWMGIIYPGDSDARYSPSFQGQVTISADKSISTAYLQWSSLKASDTGMYYCARSVLFDYWGQGTLVTVSSASTKGPSVFPLAPSSKSTSGGTAALGCLVKDYFPEPVTVSWNSGALTSGVHTFPAVLQSSGLYSLSSVVTVPSSSLGTQTYICNVNHKPSNTKVDKRVEPKSCDKTHTCPPCPAPEFEGGPSVFLFPPKPKDTLMISRTPEVTCVVVAVSHEDPEVKFNWYVDGVEVHNAKTKPREEQYNSTYRVVSVLTVLHQDWLNGKEYKCKVSNKALPAPIEKTISKAKGQPREPQVYTLPPSREEMTKNQVSLTCLVKGFYPSDIAVEWESNGQPENNYKTTPPVLDSDGSFFLYSRLTVDKSRWQQGNVFSCSVMHEALHNHYTQKSLSLSPGK light: AIQLTQSPSSLSASVGDRVTITCRASQGISSALAWYQQKPGKAPKLLIYDVSNLESGVPSRFSGSGSGTDFTLTISSLQPEDFATYYCQQFNSYPHTFGQGTKLEIKRTVAAPSVFIFPPSDEQLKSGTASVVCLLNNFYPREAKVQWKVDNALQSGNSQESVTEQDSKDSTYSLSSTLTLSKADYEKHKVYACEVTHQGLSSPVTKSFNRGEC,EC50 (read off the curve),full length human 5T4 [16],~0.1 µg/mL
same,EC50 (read off the curve),full length human 5T4 [17],~0.1 µg/mL
same,binding result,[18],binds
"IgG1-5T4-207-FEAR (antibody, V domains shown, Human IgG1 FEAR, kappa (as for m12)) VH: QVQLQQWGAGLLKPSETLSLTCAVYGGSFSGYYWTWIRQPPGKGLEWIGEIDHSESTNYNPSLKSRVTISVDTSKNQFSLKLSSVTAADTAVYYCAGWFGELYHYYYGMDVWGQGTTVTVSS VL: EIVLTQSPATLSLSPGERATLSCRASQSVSSYLAWYQQKPGQAPRLLIYDASNRATGIPARFSGSGSGTDFTLTISSLEPEDFAVYYCQQRSNWPLTFGGGTKVEIKR",EC50 (read off the curve),full length human 5T4 [2],~0.02 µg/mL
same,EC50 (read off the curve),[6],~0.1 µg/mL
bsIgG1-huCD3-H101G-FEALx5T4-H8-FEAR (bispecific antibody) heavy 1: not shown VL 1: not shown heavy 2: EVQLQQSGPDLVKPGASVKISCKASGYSFTGYYMHWVKQSHGKSLEWIGRINPNNGVTLYNQKFKDKAILTVDKSSTTAYMELRSLTSEDSAVYYCARSTMITNYVMDYWGQVTSVTVSSASTKGPSVFPLAPSSKSTSGGTAALGCLVKDYFPEPVTVSWNSGALTSGVHTFPAVLQSSGLYSLSSVVTVPSSSLGTQTYICNVNHKPSNTKVDKRVEPKSCDKTHTCPPCPAPEFEGGPSVFLFPPKPKDTLMISRTPEVTCVVVAVSHEDPEVKFNWYVDGVEVHNAKTKPREEQYNSTYRVVSVLTVLHQDWLNGKEYKCKVSNKALPAPIEKTISKAKGQPREPQVYTLPPSREEMTKNQVSLTCLVKGFYPSDIAVEWESNGQPENNYKTTPPVLDSDGSFFLYSRLTVDKSRWQQGNVFSCSVMHEALHNHYTQKSLSLSPGK VL 2: SIVMTQTPTFLLVSAGDRVTITCKASQSVSNDVAWYQQKPGQSPTLLISYTSSRYAGVPDRFIGSGYGTDFTFTISTLQAEDLAVYFCQQDYNSPPTFGGGTKLEIK,binding result,full length human 5T4 [19],binds
same,EC50 (read off the curve),[20],~0.1 µg/mL
"IgG1-5T4-076-FEAR (antibody, V domains shown, Human IgG1 FEAR, kappa (as for m12)) VH: QVQLVQSGAEVKKPGASVKVSCKASGYTFTSYGISWVRQAPGQGLEWMGWISAYNGNTNYAQKLQGRVTMTTDTSTRTAYMELRSLRSDDTAVYYCARDPGYFDWLYGDYWGQGTLVTVSS VL: AIQLTQSPSSLSASVGDRVTITCRASQGISSALAWYQQKPGKAPKLLIYDASSLESGVPSRFSGSGSGTDFTLTISSLQPEDFATYYCQQFNSYPRTFGQGTKVEIKR",EC50 (read off the curve),[21],~0.01 µg/mL
